The values that follow come from patent publication US10519238 (dated 2019).

A word on the Kd: it is the equilibrium constant for the complex coming apart.

Assay [1] deals with recombinant human galectin-1 (R&D Systems) (UniProt P09382 2-135). Kind of assay: SPR (BIAcore). Background: In SPR one partner is held on a chip, and binding of the other changes the refractive index at the surface.
Assay [2] deals with T1, recombinant murine galectin-1 (R&D Systems) (UniProt P16045 2-135).
T1 chain: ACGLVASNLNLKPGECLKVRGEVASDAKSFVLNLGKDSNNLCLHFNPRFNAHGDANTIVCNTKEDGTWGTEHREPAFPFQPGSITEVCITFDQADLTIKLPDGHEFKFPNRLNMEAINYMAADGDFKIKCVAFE
The assay can be described thus: SPR (BIAcore).

recombinant human galectin-1 (R&D Systems), sequence (P09382 2-135): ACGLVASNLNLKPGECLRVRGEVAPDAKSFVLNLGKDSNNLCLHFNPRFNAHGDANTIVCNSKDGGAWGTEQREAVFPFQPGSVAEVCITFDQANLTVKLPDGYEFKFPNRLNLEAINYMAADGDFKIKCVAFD

B1: anti-Gal1 monoclonal antibody 8A12.H9.H10 (antibody, V domains shown)
VH: QAYLQQSGAELVRPGASVRMSCKASGYTFTRYNMHWVKQTPRQGLEWIGRIYPGNGDTSYNQKFKGKATLTVDKSSSTAYMQLSSLTSEDSAVYFCTVWDYWGQGTTLTVSS
VL: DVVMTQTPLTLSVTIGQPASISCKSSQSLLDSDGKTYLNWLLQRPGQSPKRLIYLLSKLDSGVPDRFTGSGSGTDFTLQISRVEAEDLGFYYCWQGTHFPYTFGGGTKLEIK
In the case of B1, the Kd came to 71 nM in assay [1] and 26.6 nM in assay [2].
